Data from patent publication US10772972B2, “Anti-STEAP2 antibody drug conjugates, and compositions and uses thereof” (Regeneron Pharmaceuticals, Inc., priority 2016, dated 2020).

T1: hSTEAP2 fused to GFP (Homo sapiens, UniProt Q8NFT2)
T1 construct: expressed in transfected cells; host or cells: HEK293
T1 sequence (Q8NFT2 1-490): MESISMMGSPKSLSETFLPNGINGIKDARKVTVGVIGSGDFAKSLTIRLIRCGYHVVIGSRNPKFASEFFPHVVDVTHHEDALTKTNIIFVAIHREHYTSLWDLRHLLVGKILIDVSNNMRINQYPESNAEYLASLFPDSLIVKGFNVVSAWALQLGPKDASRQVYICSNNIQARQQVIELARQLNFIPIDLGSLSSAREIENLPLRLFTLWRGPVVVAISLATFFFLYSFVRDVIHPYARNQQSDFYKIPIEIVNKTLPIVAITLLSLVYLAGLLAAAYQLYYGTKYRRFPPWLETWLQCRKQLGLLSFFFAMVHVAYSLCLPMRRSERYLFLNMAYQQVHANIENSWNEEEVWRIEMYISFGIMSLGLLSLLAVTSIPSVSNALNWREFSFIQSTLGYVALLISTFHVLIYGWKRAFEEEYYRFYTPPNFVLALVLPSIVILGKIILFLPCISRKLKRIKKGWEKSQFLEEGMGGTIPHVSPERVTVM

T2: hSTEAP3 fused to GFP (Homo sapiens, UniProt Q658P3)
T2 construct: expressed in transfected cells; host or cells: HEK293
T2 sequence (Q658P3 1-488): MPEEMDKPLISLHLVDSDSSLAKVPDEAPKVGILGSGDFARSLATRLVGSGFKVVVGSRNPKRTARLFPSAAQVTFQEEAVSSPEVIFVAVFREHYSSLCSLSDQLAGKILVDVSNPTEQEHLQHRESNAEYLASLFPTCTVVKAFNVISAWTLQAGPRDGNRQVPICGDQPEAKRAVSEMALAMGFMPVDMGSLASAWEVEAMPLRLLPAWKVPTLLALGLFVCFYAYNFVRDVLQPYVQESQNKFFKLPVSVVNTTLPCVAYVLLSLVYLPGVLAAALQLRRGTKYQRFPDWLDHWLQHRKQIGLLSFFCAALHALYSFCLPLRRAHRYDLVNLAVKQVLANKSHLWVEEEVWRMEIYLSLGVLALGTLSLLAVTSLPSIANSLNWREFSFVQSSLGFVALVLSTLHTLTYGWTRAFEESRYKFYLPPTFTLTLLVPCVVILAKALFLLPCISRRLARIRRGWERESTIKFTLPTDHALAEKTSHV

T3: hSTEAP4 fused to GFP (Homo sapiens, UniProt Q687X5)
T3 construct: expressed in transfected cells; host or cells: HEK293
T3 sequence (Q687X5 1-459): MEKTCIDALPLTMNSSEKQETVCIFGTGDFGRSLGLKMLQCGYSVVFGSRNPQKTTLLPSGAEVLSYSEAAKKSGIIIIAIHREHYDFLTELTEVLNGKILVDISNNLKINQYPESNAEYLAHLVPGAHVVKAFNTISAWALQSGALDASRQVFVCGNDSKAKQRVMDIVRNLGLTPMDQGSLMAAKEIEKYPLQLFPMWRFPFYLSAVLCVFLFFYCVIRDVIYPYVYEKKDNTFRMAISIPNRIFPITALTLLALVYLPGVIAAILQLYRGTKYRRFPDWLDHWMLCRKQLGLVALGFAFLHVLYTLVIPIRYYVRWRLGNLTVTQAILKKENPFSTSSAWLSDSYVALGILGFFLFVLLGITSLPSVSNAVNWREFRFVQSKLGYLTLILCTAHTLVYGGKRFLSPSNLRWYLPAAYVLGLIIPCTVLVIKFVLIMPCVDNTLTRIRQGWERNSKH


Assays:
[1] = test system: FADU cells (STEAP2 negative); assay: FACS binding to STEAP2-negative FADU cells; settings: human-Fc antibodies
Experimental: (§1) The ability of anti-STEAP2 antibodies to selectively bind to human six-transmembrane epithelial antigen of prostate 2 (STEAP2) endogenously expressing cell lines was determined via FACS analysis.
(§2) Briefly, 1×10^5 cells were incubated with 10 μg/ml of anti STEAP2 antibodies, or isotype control antibodies for 30 min on ice in antibody dilution buffer. Following one wash with antibody dilution buffer, cells were incubated with 10 μg/ml of PE conjugated anti-human or anti mouse Fc secondary antibodies for 30 min on ice. Following one additional wash, samples were incubated with Cytofix (1% formaldehyde) for 20 minutes. After one final wash, samples were filtered through a Pall 96 well filtration block, run on a Hypercyt® cytometer and analyzed in ForeCyt™ (IntelliCyt, Albuquerque, N. Mex.). Mean fluorescence intensities (MFI) were expressed as fold change above unstained levels (background). The average fold above background at antibody concentrations of 100-300 nM were determined. For cell binding EC50 determinations, mAb concentrations ranged from 300 nM to […] and EC50 values were determined from a four-parameter logistic equation over a 12-point response curve (GraphPad Prism).

[2] = test system: SKBR3 cells (STEAP2 negative); assay: FACS binding to STEAP2-negative SKBR3 cells; settings: human-Fc antibodies
Experimental: as §1, §2

[3] = test system: Raji cells (STEAP2 negative); assay: FACS binding to STEAP2-negative Raji cells; settings: human-Fc antibodies
Experimental: as §1, §2

[4] = test system: C4-2 cells (high-STEAP2 expressing); assay: Internalization and total binding on C4-2 cells (imaging, qualitative score); format: cell-based, human; design: key: − (no internalization or binding); +(weak internalization or binding); ++(moderate internalization or binding); +++(robust internalization or binding); settings: 10 μg/ml antibody
Experimental: Briefly, 20,000 C4-2 cells were seeded in PDL coated 96 well plates. The next day, cells were incubated with anti-human STEAP2 antibodies (10 μg/ml) for 30 min on ice followed by two PBS washes. Cells were then incubated with alexa488-conjugated anti-hFc Fab secondary antibody for 30 minutes on ice, followed by two additional PBS washes. Antibodies were allowed to internalize for 1 h at 37° C. in internalization buffer (PBS+2% FBS) or were maintained at 4° C. Cells were fixed in 4% formaldehyde, nuclei were stained with DRAQ5 (Cell signaling), and images were acquired on the ImageXpress micro XL (Molecular Devices).
A qualitative visual assessment of the total binding intensity and the intensity of antibodies that had internalized into vesicles was performed and scored according to the following criteria: − (no internalization or binding), +(weak internalization or binding), ++(moderate internalization or binding) and +++(robust internalization or binding).

hSTEAP1 fused to GFP = target: T4, hSTEAP1 fused to GFP (Homo sapiens, UniProt Q9UHE8); assay: Specificity: binding to HEK293 cells transfected with hSTEAP1-GFP; design: key: Wells with GFP positive cells that bound anti STEAP2 antibodies were scored as positive (+); those that did not bind anti STEAP2 antibodies were scored as negative (−); settings: transient transfection, 48 h
T4 construct: expressed in transfected cells; host or cells: HEK293
T4 sequence (Q9UHE8 whole entry, the tested form may be a part): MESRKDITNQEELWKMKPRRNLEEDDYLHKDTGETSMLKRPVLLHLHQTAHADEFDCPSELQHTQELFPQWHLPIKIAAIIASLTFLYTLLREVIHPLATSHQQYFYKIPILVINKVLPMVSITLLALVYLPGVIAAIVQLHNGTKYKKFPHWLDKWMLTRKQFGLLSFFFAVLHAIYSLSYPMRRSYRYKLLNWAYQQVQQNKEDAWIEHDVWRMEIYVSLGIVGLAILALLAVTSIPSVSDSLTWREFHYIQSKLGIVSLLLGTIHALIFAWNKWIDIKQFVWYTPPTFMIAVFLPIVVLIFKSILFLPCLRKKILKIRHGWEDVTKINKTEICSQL
Experimental: (§3) Selected STEAP2 antibodies were then tested for binding to other human (h) STEAP family members (STEAP1, STEAP3, and STEAP4). To assess anti STEAP2 antibody specificity, plasmid constructs expressing hSTEAP1, hSTEAP2, hSTEAP3 or hSTEAP4 fused to Green Fluorescent Protein (GFP) were transiently introduced into HEK293 cells via lipofectamine 2000 based methodology. After 48 h, transiently transfected cells were stained with anti STEAP2 antibodies and imaged as described above for the internalization assay.

hSTEAP2 fused to GFP = target: T1, hSTEAP2 fused to GFP; assay: Specificity: binding to HEK293 cells transfected with hSTEAP2-GFP; design: key: Wells with GFP positive cells that bound anti STEAP2 antibodies were scored as positive (+); those that did not bind anti STEAP2 antibodies were scored as negative (−); settings: transient transfection, 48 h
Experimental: as §3

hSTEAP3 fused to GFP = target: T2, hSTEAP3 fused to GFP; assay: Specificity: binding to HEK293 cells transfected with hSTEAP3-GFP; design: key: Wells with GFP positive cells that bound anti STEAP2 antibodies were scored as positive (+); those that did not bind anti STEAP2 antibodies were scored as negative (−); settings: transient transfection, 48 h
Experimental: as §3

hSTEAP4 fused to GFP = target: T3, hSTEAP4 fused to GFP; assay: Specificity: binding to HEK293 cells transfected with hSTEAP4-GFP; design: key: Wells with GFP positive cells that bound anti STEAP2 antibodies were scored as positive (+); those that did not bind anti STEAP2 antibodies were scored as negative (−); settings: transient transfection, 48 h
Experimental: as §3

[5] = test system: PC3_STEAP2/1 cells (PC3 engineered to express a STEAP2/1 chimeric construct); assay: FACS binding titration of STEAP2xCD3 bispecifics on PC3_STEAP2/1 cells; design: species or system human; settings: 66.6 nM to 0.001 nM, 30 minutes at 4° C.
Experimental: (§4) FACS Binding Titration on Jurkat Cells, PC3_STEAP2/1 Cells and cynomolgus T Cells: Flow cytometric analysis was utilized to determine binding of STEAP2×CD3 bispecific antibodies to Jurkat, PC3_STEAP2/1 chimeric and cynomolgus T cells, followed by detection with a phycoerythrin (PE)-labeled anti-human IgG antibody. Briefly, 2×10^5 cells/well were incubated for 30 minutes at 4° C. with a serial dilution of STEAP2×CD3 bispecific antibodies or control antibody (a human IgG1 antibody that binds a feline antigen with no cross-reactivity to STEAP2 or human or cynomolgus CD3) ranging from 66.6 nM to 0.001 nM. After incubation, the cells were washed twice with cold PBS containing 1% filtered FBS and a PE-conjugated anti-human secondary antibody was added to the cells and incubated for an additional 30 minutes. Wells containing no antibody or secondary antibody only were used as a control. After incubation, cells were washed, re-suspended in 200 μL cold PBS containing 1% filtered FBS and analyzed by flow cytometry on a BD FACS Canto II.

cynomolgus T cells = assay: FACS binding titration of STEAP2xCD3 bispecifics on cynomolgus T cells; settings: 66.6 nM to 0.001 nM, 30 minutes at 4° C.
Experimental: as §4

monkey PBMCs = assay: T cell proliferation assay, cynomolgus PBMC; format: cell-based; settings: donor mk8781M; anti-CD28 500 ng/mL, 72 hours; read-out: Cyno PBMC Proliferation [M] (donor)
Experimental: Thawed human or freshly isolated monkey PBMCs (50,000 cells/well) were incubated with 3-fold (human, concentration range: 5E-10M to 2.82E-15M; cynomolgus, concentration range: 1E-09M to 4.57E-13M) serial dilutions of STEAP2×CD3 bispecifics or isotype control in complete medium (RPMI supplemented with 10% FBS, 100 U/mL penicillin, 100 μg/mL streptomycin, 292 μg/mL L-glutamine) and a fixed concentration (human: 200 ng/mL, cyno: 500 ng/mL) of a commercial anti-CD28 antibody (Biolegend, Catalog #302914) in white flat bottom 96-well plates for 72 hours at 37° C. Isolated monkey PBMCs were from two donors (identified as mk8781M or mk9381M). Following incubation, CellTiter Glo® (Promega, Cat #7573) was added and luminescence, as readout for cell viability, was measured using a VICTOR X5 multi-label plate reader. Cell titer was calculated by dividing the luminescence of stimulated cells by the baseline luminescence of unstimulated cells.

| Binding to hSTEAP1-GFP transfected HEK293 cells (hSTEAP1 fused to GFP) | Binding to hSTEAP2-GFP transfected HEK293 cells (hSTEAP2 fused to GFP) | Binding to hSTEAP3-GFP transfected HEK293 cells (hSTEAP3 fused to GFP) | Binding to hSTEAP4-GFP transfected HEK293 cells (hSTEAP4 fused to GFP) | FACS PC3_STEAP2/1 EC50 [M] [5] | Cynomolgus T cells EC50 [M] (cynomolgus T cells) | Molecule | FADU Avg F.A.B (Fold Above Background) [1] [fold] | SKBR3 Avg F.A.B (Fold Above Background) [2] [fold] | Raji Avg F.A.B (Fold Above Background) [3] [fold] | Internalization (37° C., 1 h) Qualitative Score [4] | Total Binding (4° C.) Qualitative Score [4] | EC50 (monkey PBMCs) [M] |
| --- | --- | --- | --- | --- | --- | --- | --- | --- | --- | --- | --- | --- |
|  |  |  |  |  |  | H1H11162N: human-Fc anti-STEAP2 antibody, HCVR/LCVR SEQ ID NOs 250/258 (antibody, V domains shown, human Fc) VH: QVQLQQSGPGLVKPSQTLSLTCAISGDSVSSNRAAWNWIRQSPSRGLQWLGRTYYRSKWYNDYAVSLRSRITINPVTSKNQVALHMNSVTPEDTAVYYCARAGIVVVPGPETFYYYDHGLDVWGQGTTVTVSS VL: DIQMTQSPSSLSASVGDRVTITCRASQSIRSYLNWYQQKPGKAPELLIHAASSLQSGVPSRFSGSGSGTDFTLTISSLQPEDFASYYCQQSYSAPPITFGQGTRLEIK | 3 | 3 | 2 | +++ | +++ |  |
| − | + | − | − |  |  | H1H7972P: anti-STEAP2 antibody, HCVR/LCVR SEQ ID NOs 186/194 (antibody, V domains shown) VH: QVQLQQSGPGLVKPSQTLSLTCAISGDSVSSNSAAWNWIRQSPSRGLEWLGRTYYRSKWYNDYVVSVKSRIIFNPDTSKNQFSLQLNSVTPEDTAVYYCARVRQDYRSGPFDYWGQGTLVTVSS VL: EIVMTQSPVTLSVSPGERATLSCWASQSVSSSLAWYQQKPGQAPRLLIYGASTRATGIPARFSGSGSGTGFTLTISSLQSEDFAVYYCQQYNNWPFTFGPGTKVDIK | 2 | 3 | 59 | + | + |  |
|  |  |  |  | No Binding | No Binding | BSSTEAP2/CD3-011: STEAP2×CD3 bispecific: anti-STEAP2 H1H7809N (SEQ 330), anti-CD3 H1H7203P (SEQ 1474), common LCVR of H1H7809N (antibody, V domains shown) VH 1: QVQLVESGGGVVQPGRSLGLSCAASGFTFSSYGMHWVRQAPGKGLEWVAVIWYDGSNKYYVDSVKGRFTISRDNSKNTLYLQMNSLRAEDTAVYYCAREGLRFLENYYYYYGMDVWGQGTTVTVSS VH 2: EVQLVQSGGGLVQPGRSLRLSCAASGFTFADYTMHWVRQTPGKGLEWVSGISWNSGSKDYADSVKGRFTISRDNAKNSLYLQMNSLRTEDTALYYCAKYGSGYGRYFFYAMDVWGQGTTVTVSS VL: EIVLTQSPGTLSLSPGERATLSCRASQSISSTYLAWYQQRPGQAPRLLIYGASSRATGIPDRFSGSGSGTDFTLTISRLEPEDFAVYYCQQYGTSPYTFGQGTKLEIK |  |  |  |  |  | 3.6e-12 |
